Source: patent publication US9081017 (CAMBRIDGE ENTERPRISE, dated 2015)

Target: T1, TRAF2 (mouse, endogenous) (mouse, UniProt P39429 2-501)
T1 construct: Endogenous protein; also called TNF-receptor associated factor 2
T1 sequence (looked up): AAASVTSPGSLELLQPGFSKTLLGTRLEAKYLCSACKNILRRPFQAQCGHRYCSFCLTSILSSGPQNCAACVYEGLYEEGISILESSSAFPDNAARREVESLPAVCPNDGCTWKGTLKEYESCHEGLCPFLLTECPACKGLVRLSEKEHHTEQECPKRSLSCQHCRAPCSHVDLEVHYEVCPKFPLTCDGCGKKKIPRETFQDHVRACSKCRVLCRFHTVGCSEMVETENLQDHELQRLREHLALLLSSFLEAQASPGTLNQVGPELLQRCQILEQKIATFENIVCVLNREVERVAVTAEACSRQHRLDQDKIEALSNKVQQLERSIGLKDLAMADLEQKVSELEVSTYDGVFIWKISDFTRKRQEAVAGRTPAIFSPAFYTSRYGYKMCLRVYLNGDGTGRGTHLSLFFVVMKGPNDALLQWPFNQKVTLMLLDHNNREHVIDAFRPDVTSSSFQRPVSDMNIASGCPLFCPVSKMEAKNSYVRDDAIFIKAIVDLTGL
Assay: co-immunoprecipitation from ischemic hindlimb muscle of C57BL/6 mice

- binding result: binds
B1: TNFR2 (mouse, endogenous in hindlimb muscle of C57BL/6 mice) (receptor, UniProt P25119 23-474, looked up)
chain: VPAQVVLTPYKPEPGYECQISQEYYDRKAQMCCAKCPPGQYVKHFCNKTSDTVCADCEASMYTQVWNQFRTCLSCSSSCTTDQVEIRACTKQQNRVCACEAGRYCALKTHSGSCRQCMRLSKCGPGFGVASSRAPNGNVLCKACAPGTFSDTTSSTDVCRPHRICSILAIPGNASTDAVCAPESPTLSAIPRTLYVSQPEPTRSQPLDQEPGPSQTPSILTSLGSTPIIEQSTKGGISLPIGLIVGVTSLGLLMLGLVNCIILVQRKKKPSCLQRDAKVPHVPDEKSQDAVGLEQQHLLTTAPSSSSSSLESSASAGDRRAPPGGHPQARVMAEAQGFQEARASSRISDSSHGSHGTHVNVTCIVNVCSSSDHSSQCSSQASATVGDPDAKPSASPKDEQVPFSQEECPSQSPCETTETLQSHEKPLPLGVPDMGMKPSQAGWFDQIAVKVA
notes: Endogenous protein immunoprecipitated from muscle tissue; also called tumor necrosis factor receptor 2
